Experimental data as given in WO2020216210A1 (dated 2020).

Molecular target: T1, human EpCAM full-length protein (on MCF-7 and A431 cells) (human, UniProt P16422 24-314)
T1 construct: Endogenous EpCAM on the cell lines MCF-7 and A431 (ATCC); also called CD326; epithelial cell adhesion molecule
T1 sequence: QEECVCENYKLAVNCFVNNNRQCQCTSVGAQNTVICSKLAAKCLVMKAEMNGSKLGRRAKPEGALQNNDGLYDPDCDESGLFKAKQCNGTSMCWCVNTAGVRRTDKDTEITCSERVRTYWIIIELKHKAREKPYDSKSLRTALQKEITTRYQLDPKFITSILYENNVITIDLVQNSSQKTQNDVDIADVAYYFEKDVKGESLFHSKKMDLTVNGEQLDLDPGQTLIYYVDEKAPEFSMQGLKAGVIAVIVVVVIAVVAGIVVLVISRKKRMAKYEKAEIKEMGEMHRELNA
Experiment: flow cytometry (FACS) on MCF-7 and A431 cells, Alexa Fluor 488 goat anti-human IgG detection

Binder | binding result
fully human antibody h1905 (antibody, human IgG1, kappa, V domains shown, Complete antibody VH-CH1-FC/VL-CL built from a phage scFv) VH: QMQLVQSGAEVKKPGASVKVSCKASGYTFTSYDINWVRQATGQGLEWMGWMNPNSGNTGYAQKFQGRVTMTRNTSISTAYMELSSLRSEDTAVYYCARGVVVVVAATRGHYYYYYGMDVWGQGTTVTVSS VL: DIQMTQSPSSLSASIGDRVSMTCRASQSVTKYLNWYQQTPGKPPKLLIFSASHLQTGVPSRFSGSGSGTDFTLTIDSLQPEDVATYYCQQSYSTPFTFGQGTKVEIKR | binds
fully human antibody h1907 (antibody, human IgG1, kappa, V domains shown, Complete antibody VH-CH1-FC/VL-CL built from a phage scFv) VH: QVTLKESGPTLVKPTQTLTLTCTFSGFSLSTSGVAVGWIRQPPGKALEWLALIYWDADTRYSPSLKSRLTITKDTSKNQVVLTMTNMDPVDTATYYCAHRPHGSGSYYAFDYWGQGILVTVSS VL: DIVMTQSPSSLSASVGDRVTISCRASQNIRNYLNWYQHRPGEAPKLLISGVSRLQNGVPSRFSGSGSGTDFTLTIRSLQSEDFATYYCQQSYINWTFGQGTKVEIKR | binds
